Data on two molecules can be found in patent publication US8551717B2, “Method for determining sumoylation” (Medizinische Hochschule Hannover, priority 2008, dated 2013).

Holding throughout (type): cell-based
Assay [1] addresses T1, U-MK5 (Homo sapiens, UniProt P63279+Q8IW41).
T1 construct: expressed in transfected cells; host or cells: HEK293
The experiment in a line: Trans-SUMOylation by U-MK5. Details: key: (++), strong TransSUMOylation; (+), TransSUMOylation; (+/−) weak TransSUMOylation; (−) no detectable TransSUMOylation. The conditions noted are these: protein 2 construct coexpressed with U-MK5 and EGFP-SUMO1 in HEK293; western blot; Table 2. An excerpt: (§1) To identify new SUMOylation substrates and to study the function of SUMOylation the Ubc9/substrate dimerisation-dependent SUMOylation system (USDDS) was developed which consists of fusions of the SUMOylation substrate and of the SUMO-conjugating enzyme Ubc9 to the chemically activatable heterodimerisation domains FKBP and FRB, respectively, as shown in FIG. 2. When the substrate protein fused to FKBP is coexpressed with Ubc9-FRB, treatment of HEK293 cells with the rapamycin-related dimerizer AP21967 induces SUMOylation of the substrate protein fused to FKBP at its specific SUMOylation site. […] Dependent on an EcoRl site in the coding sequence, seven C-terminal amino acids of the human STAT1a in the STAT1-FKBP/FRB fusion proteins are missing. For the SUMOylation analysis HEK293 (human embryonic kidney cells) cells have been used. HEK293 cells were cultured in Dulbecco's modified Eagle's medium with high glucose, complemented with 10% fetal calf serum, 2 mM L-glutamine, 100 U/ml penicillin and […] streptomycin. […]
(§2) As shown above, the SUMOylation of a protein of interest can be induced by the heterodimerisation with a binding protein fused to Ubc9. […] Therefore the protein pairs were coexpressed with EGFP-SUMO1 in HEK293 cells and after 24h the transfectants were lysed and the protein extracts were analyzed in western blots. […]

Assay [2] addresses T2, MK2-U (Homo sapiens, UniProt P49137+P63279).
T2 construct: expressed in transfected cells; host or cells: HEK293
The experiment in a line: Trans-SUMOylation by MK2-U. Particulars: protein 2 construct coexpressed with MK2-U and EGFP-SUMO1 in HEK293; western blot; Table 2.

Assay [3] deals with T3, JUN-U (Homo sapiens, UniProt P05412+P63279).
T3 construct: expressed in transfected cells; host or cells: HEK293
The experiment in a line: Trans-SUMOylation by JUN-U. The conditions noted are these: protein 2 construct coexpressed with JUN-U and EGFP-SUMO1 in HEK293; western blot; Table 2.

The target in assay [4] is T4, ERK2-U (Homo sapiens, UniProt P28482+P63279).
T4 construct: expressed in transfected cells; host or cells: HEK293
Put plainly: Trans-SUMOylation by ERK2-U. The conditions noted are these: protein 2 construct coexpressed with ERK2-U and EGFP-SUMO1 in HEK293; western blot; Table 2. A general note: Immunoblotting shows a protein as a band on a membrane.

For assay [5], the target named is T5, U-p38α (Homo sapiens, UniProt P63279+Q16539).
T5 construct: expressed in transfected cells; host or cells: HEK293
Put plainly: Trans-SUMOylation by U-p38α. The conditions noted are these: protein 2 construct coexpressed with U-p38α and EGFP-SUMO1 in HEK293; western blot; Table 1.

For assay [6], the target named is T6, U-ERK2 (Homo sapiens, UniProt P28482+P63279).
T6 construct: expressed in transfected cells; host or cells: HEK293
The experiment in a line: Trans-SUMOylation by U-ERK2. Particulars: protein 2 construct coexpressed with U-ERK2 and EGFP-SUMO1 in HEK293; western blot; Table 2.

Assay [7] addresses T7, U-CSNK2B (Homo sapiens, UniProt P63279+P67870).
T7 construct: expressed in transfected cells; host or cells: HEK293
Put plainly: Trans-SUMOylation by U-CSNK2B. Details: key: (++), strong TransSUMOylation; (+), TransSUMOylation; (+/−) weak TransSUMOylation; (−) no detectable TransSUMOylation. Particulars: protein 2 construct coexpressed with U-CSNK2B and EGFP-SUMO1 in HEK293; western blot; Table 2.
From the text: as §1, §2

For assay [8], the target named is T8, U-MK2 (Homo sapiens, UniProt P49137+P63279).
T8 construct: expressed in transfected cells; host or cells: HEK293
The experiment in a line: Trans-SUMOylation by U-MK2. The conditions noted are these: protein 2 construct coexpressed with U-MK2 and EGFP-SUMO1 in HEK293; western blot; Table 2.

For assay [9], the target named is T9, U-HSF2BP (Homo sapiens, UniProt O75031+P63279).
T9 construct: expressed in transfected cells; host or cells: HEK293
The experiment in a line: Trans-SUMOylation by U-HSF2BP. The conditions noted are these: protein 2 construct coexpressed with U-HSF2BP and EGFP-SUMO1 in HEK293; western blot; Table 2. Further details: key: (++), strong TransSUMOylation; (+), TransSUMOylation; (+/−) weak TransSUMOylation; (−) no detectable TransSUMOylation.
From the text: as §1, §2

In assay [10] the target is T10, U-HDGF (Homo sapiens, UniProt P51858+P63279).
T10 construct: Ubc9 (fusion partner); expressed in transfected cells; host or cells: HEK293
Put plainly: Trans-SUMOylation by U-HDGF. Further details: key: (++), strong TransSUMOylation; (+), TransSUMOylation; (+/−) weak TransSUMOylation; (−) no detectable TransSUMOylation. The conditions noted are these: protein 2 construct coexpressed with U-HDGF and EGFP-SUMO1 in HEK293; western blot; Table 2.
From the text: as §1, §2

T8 sequence (P63279+P49137 fused): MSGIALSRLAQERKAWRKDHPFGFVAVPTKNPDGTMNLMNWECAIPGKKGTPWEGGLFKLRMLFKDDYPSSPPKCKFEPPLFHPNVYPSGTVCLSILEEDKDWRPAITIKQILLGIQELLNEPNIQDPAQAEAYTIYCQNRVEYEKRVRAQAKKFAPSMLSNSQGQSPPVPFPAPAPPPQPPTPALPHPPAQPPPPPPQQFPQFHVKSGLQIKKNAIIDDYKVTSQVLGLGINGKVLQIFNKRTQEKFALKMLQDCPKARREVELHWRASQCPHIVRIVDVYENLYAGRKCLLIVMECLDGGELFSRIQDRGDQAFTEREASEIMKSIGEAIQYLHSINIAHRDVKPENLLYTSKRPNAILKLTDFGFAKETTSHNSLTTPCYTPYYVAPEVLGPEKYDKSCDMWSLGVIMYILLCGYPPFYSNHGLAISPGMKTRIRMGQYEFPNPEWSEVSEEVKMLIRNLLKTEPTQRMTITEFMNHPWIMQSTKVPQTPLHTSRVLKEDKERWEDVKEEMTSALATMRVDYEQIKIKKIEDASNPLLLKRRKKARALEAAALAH
T3 sequence (P05412+P63279 fused): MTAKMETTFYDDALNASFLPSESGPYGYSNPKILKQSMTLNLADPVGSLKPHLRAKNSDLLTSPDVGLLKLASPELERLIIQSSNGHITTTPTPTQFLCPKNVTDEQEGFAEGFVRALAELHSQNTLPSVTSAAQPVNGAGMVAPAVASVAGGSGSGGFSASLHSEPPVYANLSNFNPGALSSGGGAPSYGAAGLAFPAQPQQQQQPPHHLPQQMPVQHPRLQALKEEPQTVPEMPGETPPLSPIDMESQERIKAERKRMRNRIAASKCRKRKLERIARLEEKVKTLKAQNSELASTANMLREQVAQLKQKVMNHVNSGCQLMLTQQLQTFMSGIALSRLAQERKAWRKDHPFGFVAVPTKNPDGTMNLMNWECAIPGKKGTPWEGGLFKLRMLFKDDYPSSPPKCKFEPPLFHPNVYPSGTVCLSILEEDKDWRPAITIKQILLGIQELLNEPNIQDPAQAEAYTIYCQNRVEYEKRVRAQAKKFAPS
T4 sequence (P28482+P63279 fused): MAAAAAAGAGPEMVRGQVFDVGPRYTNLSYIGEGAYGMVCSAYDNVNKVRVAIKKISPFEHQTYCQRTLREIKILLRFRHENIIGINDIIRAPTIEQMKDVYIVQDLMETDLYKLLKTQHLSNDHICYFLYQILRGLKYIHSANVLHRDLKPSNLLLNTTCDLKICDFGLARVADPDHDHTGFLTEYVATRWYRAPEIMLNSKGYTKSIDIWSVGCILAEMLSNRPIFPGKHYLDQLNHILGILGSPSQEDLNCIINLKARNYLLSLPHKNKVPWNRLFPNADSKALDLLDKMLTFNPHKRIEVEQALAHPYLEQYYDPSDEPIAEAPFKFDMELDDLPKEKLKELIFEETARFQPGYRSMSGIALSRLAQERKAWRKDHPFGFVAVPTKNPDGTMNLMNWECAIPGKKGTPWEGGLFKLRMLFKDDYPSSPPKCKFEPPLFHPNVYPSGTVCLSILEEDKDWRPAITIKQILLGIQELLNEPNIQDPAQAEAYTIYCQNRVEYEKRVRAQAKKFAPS
T10 sequence (P63279+P51858 fused): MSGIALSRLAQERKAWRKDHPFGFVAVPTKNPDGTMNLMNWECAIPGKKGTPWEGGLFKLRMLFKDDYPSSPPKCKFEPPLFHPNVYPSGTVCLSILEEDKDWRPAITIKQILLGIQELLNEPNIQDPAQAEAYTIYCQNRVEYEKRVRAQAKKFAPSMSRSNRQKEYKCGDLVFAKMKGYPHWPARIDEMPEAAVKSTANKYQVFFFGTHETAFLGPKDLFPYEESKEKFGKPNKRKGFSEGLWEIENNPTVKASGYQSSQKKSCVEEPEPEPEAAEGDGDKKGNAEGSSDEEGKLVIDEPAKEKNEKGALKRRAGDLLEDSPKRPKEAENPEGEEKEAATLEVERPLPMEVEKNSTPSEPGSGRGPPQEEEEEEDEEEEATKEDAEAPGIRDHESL
T6 sequence (P63279+P28482 fused): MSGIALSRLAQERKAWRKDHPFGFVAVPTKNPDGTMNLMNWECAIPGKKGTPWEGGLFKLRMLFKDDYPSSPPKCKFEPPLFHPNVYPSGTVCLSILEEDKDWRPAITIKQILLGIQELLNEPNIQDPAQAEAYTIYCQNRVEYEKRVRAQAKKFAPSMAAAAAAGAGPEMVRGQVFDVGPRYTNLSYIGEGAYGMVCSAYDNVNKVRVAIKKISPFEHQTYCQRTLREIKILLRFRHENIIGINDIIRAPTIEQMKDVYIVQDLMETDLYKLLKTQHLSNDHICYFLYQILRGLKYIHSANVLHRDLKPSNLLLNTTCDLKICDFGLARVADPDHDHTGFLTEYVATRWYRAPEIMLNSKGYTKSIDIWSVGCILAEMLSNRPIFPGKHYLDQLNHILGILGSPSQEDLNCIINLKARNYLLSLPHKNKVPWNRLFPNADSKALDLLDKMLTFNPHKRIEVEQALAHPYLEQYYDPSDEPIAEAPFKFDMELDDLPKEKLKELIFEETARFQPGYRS
T1 sequence (P63279+Q8IW41 fused): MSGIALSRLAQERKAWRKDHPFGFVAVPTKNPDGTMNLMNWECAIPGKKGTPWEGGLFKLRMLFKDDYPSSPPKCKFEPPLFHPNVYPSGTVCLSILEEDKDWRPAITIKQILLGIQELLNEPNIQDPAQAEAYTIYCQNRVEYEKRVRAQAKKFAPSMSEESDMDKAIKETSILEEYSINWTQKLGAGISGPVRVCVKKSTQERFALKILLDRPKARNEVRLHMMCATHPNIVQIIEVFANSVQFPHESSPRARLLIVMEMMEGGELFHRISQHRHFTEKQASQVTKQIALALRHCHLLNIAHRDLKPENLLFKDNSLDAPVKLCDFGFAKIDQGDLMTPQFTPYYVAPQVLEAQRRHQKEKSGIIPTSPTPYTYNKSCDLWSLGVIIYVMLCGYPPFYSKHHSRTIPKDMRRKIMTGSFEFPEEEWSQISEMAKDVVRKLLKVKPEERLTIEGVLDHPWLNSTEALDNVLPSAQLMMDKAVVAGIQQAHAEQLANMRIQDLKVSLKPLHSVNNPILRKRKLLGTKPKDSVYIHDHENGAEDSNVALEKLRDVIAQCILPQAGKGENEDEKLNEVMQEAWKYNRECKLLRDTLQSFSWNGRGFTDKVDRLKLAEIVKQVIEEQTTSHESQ
T9 sequence (P63279+O75031 fused): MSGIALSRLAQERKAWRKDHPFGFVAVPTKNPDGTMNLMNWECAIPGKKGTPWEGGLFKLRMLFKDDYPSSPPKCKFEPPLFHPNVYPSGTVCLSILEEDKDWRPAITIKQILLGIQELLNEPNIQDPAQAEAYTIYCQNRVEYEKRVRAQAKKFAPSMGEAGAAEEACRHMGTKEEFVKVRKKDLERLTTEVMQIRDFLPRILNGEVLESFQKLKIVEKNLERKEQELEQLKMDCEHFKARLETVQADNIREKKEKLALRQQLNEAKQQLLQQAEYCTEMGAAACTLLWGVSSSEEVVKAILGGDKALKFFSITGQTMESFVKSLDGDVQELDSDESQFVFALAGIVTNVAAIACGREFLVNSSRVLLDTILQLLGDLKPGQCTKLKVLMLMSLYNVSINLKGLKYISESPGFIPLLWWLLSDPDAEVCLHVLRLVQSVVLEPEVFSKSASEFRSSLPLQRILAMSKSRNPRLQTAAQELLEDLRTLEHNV
T5 sequence (P63279+Q16539 fused): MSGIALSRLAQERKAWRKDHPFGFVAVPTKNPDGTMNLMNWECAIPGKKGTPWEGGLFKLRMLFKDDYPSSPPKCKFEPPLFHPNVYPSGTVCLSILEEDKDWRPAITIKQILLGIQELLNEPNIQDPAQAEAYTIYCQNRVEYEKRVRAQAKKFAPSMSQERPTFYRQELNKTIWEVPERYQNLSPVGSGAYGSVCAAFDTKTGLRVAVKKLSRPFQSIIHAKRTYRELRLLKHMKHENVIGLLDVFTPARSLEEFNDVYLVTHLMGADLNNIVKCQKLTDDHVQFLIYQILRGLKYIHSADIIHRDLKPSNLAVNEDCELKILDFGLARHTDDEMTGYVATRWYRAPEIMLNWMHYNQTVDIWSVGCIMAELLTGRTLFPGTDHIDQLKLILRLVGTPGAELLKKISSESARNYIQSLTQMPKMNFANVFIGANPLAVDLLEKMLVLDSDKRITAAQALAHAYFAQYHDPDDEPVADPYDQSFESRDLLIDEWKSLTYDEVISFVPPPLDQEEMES
T7 sequence (P63279+P67870 fused): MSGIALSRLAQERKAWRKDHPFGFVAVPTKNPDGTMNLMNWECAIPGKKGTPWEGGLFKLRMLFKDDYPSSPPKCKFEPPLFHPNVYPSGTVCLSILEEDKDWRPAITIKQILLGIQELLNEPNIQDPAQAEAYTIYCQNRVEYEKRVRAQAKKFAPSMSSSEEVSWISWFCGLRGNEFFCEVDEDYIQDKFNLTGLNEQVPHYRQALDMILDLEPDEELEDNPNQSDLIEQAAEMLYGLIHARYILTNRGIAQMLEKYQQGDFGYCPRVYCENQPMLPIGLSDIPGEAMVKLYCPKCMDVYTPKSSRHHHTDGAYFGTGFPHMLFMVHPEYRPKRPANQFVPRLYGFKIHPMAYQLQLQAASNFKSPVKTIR

B1: HA-MK5: MK5 fused to HA tag (protein)
chain: MSEESDMDKAIKETSILEEYSINWTQKLGAGISGPVRVCVKKSTQERFALKILLDRPKARNEVRLHMMCATHPNIVQIIEVFANSVQFPHESSPRARLLIVMEMMEGGELFHRISQHRHFTEKQASQVTKQIALALRHCHLLNIAHRDLKPENLLFKDNSLDAPVKLCDFGFAKIDQGDLMTPQFTPYYVAPQVLEAQRRHQKEKSGIIPTSPTPYTYNKSCDLWSLGVIIYVMLCGYPPFYSKHHSRTIPKDMRRKIMTGSFEFPEEEWSQISEMAKDVVRKLLKVKPEERLTIEGVLDHPWLNSTEALDNVLPSAQLMMDKAVVAGIQQAHAEQLANMRIQDLKVSLKPLHSVNNPILRKRKLLGTKPKDSVYIHDHENGAEDSNVALEKLRDVIAQCILPQAGKGENEDEKLNEVMQEAWKYNRECKLLRDTLQSFSWNGRGFTDKVDRLKLAEIVKQVIEEQTTSHESQ
modifications: left off: small tags and cut ends
notes: MK5 fused to HA tag
As for B1, the Trans-SUMOylation result was “(+/−)” in [1]; “−” in assay [2]; “−” in assay [3]; “(+/−)” in [4]; “+” in assay [5]; “−” in assay [6]. Further, the Trans-SUMOylation result in assay [7] and in assay [8] was “−” each time.

B2: GST-HSF2BP: HSF2BP fused to GST tag (protein, UniProt O75031 1-334, looked up)
Heat shock factor 2-binding …: MGEAGAAEEACRHMGTKEEFVKVRKKDLERLTTEVMQIRDFLPRILNGEVLESFQKLKIVEKNLERKEQELEQLKMDCEHFKARLETVQADNIREKKEKLALRQQLNEAKQQLLQQAEYCTEMGAAACTLLWGVSSSEEVVKAILGGDKALKFFSITGQTMESFVKSLDGDVQELDSDESQFVFALAGIVTNVAAIACGREFLVNSSRVLLDTILQLLGDLKPGQCTKLKVLMLMSLYNVSINLKGLKYISESPGFIPLLWWLLSDPDAEVCLHVLRLVQSVVLEPEVFSKSASEFRSSLPLQRILAMSKSRNPRLQTAAQELLEDLRTLEHNV
modifications: GST tag
On to B2, for which the Trans-SUMOylation entry in assay [9] is on record as “+”; in assay [10], “−”.
